Drawing on patent US6569430, this text covers Concentration of antibody in ug/ml and EC50 for 3 substances.

For experiment [1], the target named is Campath-1 antigen (partially purified, obtained from a glycolipid extract from human spleen) (human) (UniProt P31358). Put plainly: cell-based or functional assay.
Experiment [2] has the same target. Kind of experiment: direct binding ELISA, partially purified Campath-1 antigen coated on wells, detected with biotin anti-rat IgG2b; antibody concentration at 50% maximal binding.

As a reminder, the EC50 is the concentration giving half of the maximal effect. Higher therefore signals weaker potency.

“HuVHCAMP(Ser27 to Phe)-RaIgG2B with rat kappa light chain of YTH 34.5HL (antibody)” yielded a Concentration of antibody in ug/ml at 50% lysis (complement lysis of human lymphocytes with human serum) in experiment [1] of 16.3 µg/mL. Further, the concentration giving a half-maximal response (EC50) in experiment [2] is 1.8 µg/mL.

“HuVHCAMP(Ser27 to Phe, Ser30 to Thr)-RaIgG2B with rat kappa light chain of YTH 34.5HL (antibody)” registered a Concentration of antibody in ug/ml at 50% lysis (complement lysis of human lymphocytes with human serum) in experiment [1] of 17.6 µg/mL. Also, in experiment [2], the EC50 worked out at 2 µg/mL.

In experiment [2], “HuVHCAMP-RaIgG2B with rat kappa light chain of YTH 34.5HL (antibody)” showed an EC50 of 27.3 µg/mL.
